Laboratory results as given in article PMC9253517 (The Journal of Experimental Medicine, 2022).
Changes are numbered by the printed parent chain.

B1: JN218 (antibody, V domains shown)
VH: EVQLVESGGGLVKPGGSLRLSCAASGFTFSSYTMNWVRQAPGKGLEWVSSISTGSSNIYYTDSVKGRFTISRDNARNSLSLQMNSLRAEDTAVYYCAREGRFIGTGYWSDFSYALDVWGQGTTVTVSS
VL: EIVLTQSPGTLSLSPGERATLSCRASQSVSSSSLAWYQQTPGQAPRLLIYGASSRATGIPDRFSGSGSGTDFTLTISRLEPEDFAVYYCQQYGSSVGAFGQGTKLEIK
B2: JN219 (antibody, V domains shown)
VH: QLQLQESGPGLVKPSETLSLTCTVSGGSISSSSYYWGSYYWGWIRQPPGKGLEWIASIYYSGTTYYNPSLKSRVTISVDTSKNQFSLKLSSVTAADTAVYYCASRYCSGGSCSLDYWGQGTLVTVSS
VL: QSALTQPRSLSGSPGQSVTISCTGTSSDVGSYNYVSWYQQHPGKAPKLMIYDVSKRPSGVPDRFSGSKSGNTASLTISGLQAEDEADYYCCSYAGSYTLWVFGGGTKLTVL
B3: JN012 (antibody, V domains shown)
VH: QLQLQESGPGLVKPSETLSLTCTVSGGSISSGSYYWVWIRQPPGKGLEWIGSVYYSGTTYYNPSLKSRVTISIDTSKNQFSLRLSSVTAADTAVYYCATNNYSFLTGYYVLDYWGQGTLVTVSS
VL: SYELTQPPSVSVSLGQMARITCSGEALPKTYAYWYQQKPGQFPVLVIYKDSERPSGIPERFSGSRSGTIVTLTISGVQAEDEADYYCLSTDISGTWVFGGGTKLTVL
B4: JN026 (antibody, V domains shown)
VH: QVQLQESGPGLVKPSETLSLTCTVSGGSISSYYWSWIRQPPGKGLEWIGYIYYSGSTNYNPSLKSRVTISVDTSKNQFSLKLSSVTAADTAVYYCARHSLTYYYDRSDYKGAFDIWGQGTMVTVSS
VL: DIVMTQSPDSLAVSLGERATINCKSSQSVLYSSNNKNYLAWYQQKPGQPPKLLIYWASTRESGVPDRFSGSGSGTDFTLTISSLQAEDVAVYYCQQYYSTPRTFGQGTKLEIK
B5: JN022 (antibody, V domains shown)
VH: B4 VH with G27D, S30R, S31N, I48M, R106S
VL: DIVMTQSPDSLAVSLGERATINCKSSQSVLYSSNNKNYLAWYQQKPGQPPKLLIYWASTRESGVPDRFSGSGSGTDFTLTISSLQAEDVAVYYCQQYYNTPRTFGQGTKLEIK
B6: JN015 (antibody, V domains shown)
VH: QLQLQESGPGLVKPSETLSLTCTVSGGSISGSSYYWGWIRQPPGKGLEWFGSIYYSGTTYYNPSLKSRVAISVDTSKKQFSLKLSSVTAADTAVYYCAARYFDWSVEYWGQGTLVTVSS
VL: B2 VL with L10V, S31G, H41Q, Y89H, L99Y, V101L
B7: JN028 (antibody, V domains shown)
VH: EVQLVESGGGLVQPGGSLRLSCAASGFTFSSYSMNWVRQAPGKGLEWVSYISSSSSTIYYADSVKGRFTISRDNAKNSLYLQMNSLRDEDTAVYYCAPLRVLGGMDVWGQGTTVTVSS
VL: SYELTQPPSVSVSPGQTARIICSGDALPKQYAYWYQQKPGQAPVLVIYKDSERPSGIPERFSGSSSGTTVTLTISGVQAEDEADYYCQSADSSGWVFGGGTKLTVL
B8: JN030 (antibody, V domains shown)
VH: EVQLVESGGGLVKPGGSLRLSCAASGFTFSNYNMNWVRQAPGKGLEWVSSISTSGSFIYYADSVKGRFTISRDNAKNSLYLQMNSLRAEDTAVYYCARDTTPYSSGWYLWYFDLWGRGTLVTVSS
VL: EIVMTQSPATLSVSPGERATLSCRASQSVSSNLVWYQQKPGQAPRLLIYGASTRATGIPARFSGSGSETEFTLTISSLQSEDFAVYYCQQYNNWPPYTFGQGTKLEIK
B9: JN018 (antibody, V domains shown)
VH: QVQLQESGPGLVKPSETLSLTCTVSGGSISGSYWSWMRQPAGKPLEWIGRIYVSGSYNRNPSLSSRVTVSEDTAKNQISLRLTSVTAADTAVYYCAREIMGWYFDLWGRGTLVTVSS
VL: EIVMTQSPGTLSVSPGERATLSCRASQSVRSSLAWYQQKPGQAPRLLIYDASTRATGIPARFSGSGSGTEFTLTISSLQSEDFAIYLCQQYYNWPSYTFTQGTKLEIK
B10: JN222 (antibody, V domains shown)
VH: EVQLVESGGGLVQPGGSLRLSCAASGFTFSRYWMSWVRQAPGKGLEWVANIKGDGKYYVDSLKGRFTISGDNAENSLYLQMNSLRAEDTAMYYCARYLAETGALDIWGQGTMVTVSS
VL: QSALTQPRAVSGSPGQSVTISCTGTSSDVGGYNYVSWYQQHPGKAPKLMIYDVSKRPSGVPDRFSGSKSGNTASLTISGLQAEDEADYYCYSFSGRYTSYVFGIGTKVTVL
B11: JN223 (antibody, V domains shown)
VH: EVQLLESGGGLVQPGGSLRLSCAASRFTFSNFAMSWVRQAPGKGLEWVSAISGSGGSTYYADSVKGRFIISRDNSKNTLFLQMNSLRAEDTAVYFCAKDLPYDNTGARFDYWGQGTLVTVSS
VL: SYELTQPPSVSVSPGQTARITCSGDALPKKYAYWYQQKSGQAPVLVIYEDSKRPSGIPERFSGSSSGTMATLTISGAQVEDEADYYCYSTDSTGNHRGVFGGGTKLTVL
B12: JN225 (antibody, V domains shown)
VH: EVQLVESGGGLVQPGGSLRLSCGASGFTLGSFWMHWVRQAPGKGLEWVGDINGDGSAKYYADSVRGRFTISRDNAENSLFLQMNSLRVEDTALYYCARGAAWLDYWGQGTLVTVSS
VL: QSALTQPASVSGSPGQSITISCTGTSSDVGGYNYVSWYQQHPGKAPKLIIYDVTNRPSGVSNRFSGSKSGNTASLTISGLQAEDEADYFCDSYRSSSPPSYVFGTGTKVTVL
B13: JN236 (antibody, V domains shown)
VH: QVQLQESGPRLVKPSETLSLTCTVSGGSINDYYWSWIRQPPGKGLEYLGYIYYTGTTNYNPSLQSRLTMSVDTSKNQFSLKVNYVSAADTAVYYCARHSTGGSYPLDSWGRGILVTVSS
VL: DIVMTQSPLTLPVTPGEPASISCRSSQSLLHSNGHNYVDWYLQKPGQSPQLLIHLGSNRASGVPDRFSGSGSGTDFTLKISRVEAEDVGVYFCMQALQSRTFGQGTKVEIK
B14: JN033 (antibody, V domains shown)
VH: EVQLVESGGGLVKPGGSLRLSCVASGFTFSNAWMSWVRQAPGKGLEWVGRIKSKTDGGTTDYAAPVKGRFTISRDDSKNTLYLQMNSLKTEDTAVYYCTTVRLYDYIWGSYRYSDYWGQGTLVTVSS
VL: DIQLTQSPFSLSASVGDRVTITCRASQGISSYLAWYQQKPGKAPKLLIYAASTLQSGVPSRFSGSGSGTEFTLTISSLQPEDFATYYCQQLNSYPPNTFGPGTKVDIK
B15: JN005 (antibody, V domains shown)
VH: QVQLVESGGGLVEPGGSLRLSCAASGFTFSDYFMSWIRQAPGRGLEWVSFITTSGSTIYYADSVKGRFTISRDNAKNSLYLQMNSLRAEDTAVYYCARRSGGYYDILTGPYGLDVWGQGTTVTVSS
VL: not shown
B16: JN232 (antibody, V domains shown)
VH: EVQLVQSGAEVKKPGESLNISCKGSGYSFTNYWIGWVRQMPGKGLEWMGIIYPGDSDTRYSPSFQGQVTISADKSISTVFLQWSSLKASDTAMYYCVRHDVLAVLMGGVTFDIWGQGTMVTVSS
VL: EIVLTQSPGTLSLSPGERATLSCRASQSISSSYLAWYQQKSGQAPRLLIYGASSRATGIPDRFSGSGSGTDFTLTISRLEPEDFAVYYCQQYGGSPMYTFGQGTKLEIK
B17: JN226 (antibody, V domains shown)
VH: QVQLVQSGAEVKKPGSSVKVSCKASGGTFSSYAISWVRQAPGQGLEWMGGIIPIFGTANYAQKFQGRVTITADKSTSTAYMELSSLRSEDTAVYYCAMLGAGSPLRGIFGVVMTDGDGMDVWGQGTTVTVSS
VL: QSVLTQPPSVSAAPGQKVTISCSGSSSNIGNNYVSWYQQLPGTAPKLLIYDNNKRPSGIPDRFSGSKSGTSATLGITGLQTGDEADYYCGTWDSSLSAGRVFGGGTKLTVL
B18: JN227 (antibody, V domains shown)
VH: QLQLQESGPGLVKPSETLSLTCTVSGGSISSSSYYWGWIRQPPGKGLEWIGSIYYSGSTYYNPSLKSRVTISVDTSKNQFSLKLSSVTAADTAVYYCAREGVITIFGVAQFDYWGQGTLVTVSS
VL: not shown
B19: JN229 (antibody, V domains shown)
VH: QVQLVQSGAEVKKPGSSVKVSCKASGGRFSSTAISWVRQAPGQGLEWMGGIIPIFGAPTDVQKFQGRVTITADQSTSTAYMELSNLRSEDTAVYYCATLGNYDFLTGNTFSYFDYWGQGTLVTVSS
VL: NFMLTQPHSVSESLGKTVTISCTRTSGSIASDYVQWYQQRPGSSPTTVIYENFQRPSGVPDRFSASVDSSSNSASLTISGLRAEDEADYYCQSHDRSDFLPVFGGGTQLTVL
B20: JN034 (antibody, V domains shown)
VH: QVQLQESGPGLVEPSQTLSLTCAVSGGSISGGDYYWSWIRQPPGKGLEWIGYIYYSGSTFYNPSLYSRLTISVDTSKNQFSLKLSSVTAADTAVYYCAREGPAIFKIPNGFDIWGQGTMVTVSS
VL: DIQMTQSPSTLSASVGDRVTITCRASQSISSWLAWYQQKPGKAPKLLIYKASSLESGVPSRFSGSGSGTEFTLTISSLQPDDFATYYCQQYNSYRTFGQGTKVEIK
B21: JN038 (antibody, V domains shown)
VH: B19 VH
VL: DIQLTQSPSSLSASVGDRVTITCRAGQSIGNYLNWYQQKPGKAPKVLIYGASSLQSGVPSRFSGSGSGTDFTLTISSLQPEDFASYYCQQSFTTPLTFGGGTKVEIK
B22: JN135 (antibody, V domains shown)
VH: QLQLQESGPGLVKPSETLSLTCTVSGGSISSSSYYWGWIRQPPGKGLEWIGSIYYSGSTYYNPSLKSRVTISVDTSKNQFSLKLSSVTAADTAVYYCARLIAATWTFGGVIFNWFDPWGQGTLVTVSS
VL: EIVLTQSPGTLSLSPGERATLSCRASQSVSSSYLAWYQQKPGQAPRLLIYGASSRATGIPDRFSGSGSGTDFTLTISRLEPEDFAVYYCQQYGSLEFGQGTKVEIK
B23: JN136 (antibody, V domains shown)
VH: QVQLVESGGGVVQPGRSLRLSCAASGFTFSSYAMHWVRQAPGKGLEWVAVISYDGSNKYYADSVKGRFTISRDNSKNTLYLQMNSLRAEDTAVYYCARELAWRGITIFGVVIYNPFDYWGQGTLVTVSS
VL: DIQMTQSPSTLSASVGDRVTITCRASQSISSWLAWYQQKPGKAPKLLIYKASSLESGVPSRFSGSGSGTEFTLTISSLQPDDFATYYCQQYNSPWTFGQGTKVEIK
B24: JN138 (antibody, V domains shown)
VH: QVQLVQSGTEVKKPGASVKVSCKASGYTFTSYYMHWVRQAPGQGLEWMGIINPSGGSTSYAQKFQGRVTMTRDTSTSTVYMELSSLRSEDTAVYYCARAELGSGSYPYYGMDVWGKGTTVTVSS
VL: SYELTQPPSVSVSPGQTARITCSGDALPKQYAYWYQQKPGQAPVLVIYKDSERPSGIPERFSGSSSGTTVTFTISGVQAEDEADYYCQSADSSGSYVVFGGGTKLTVL

molecular target: SARS-CoV-2 Wuhan-Hu-1 NTD (SARS-CoV-2, UniProt P0DTC2 14-307); assay: cell-based or functional assay

Row | Binder | neutralisation IC50, WT (293TAce2) [µg/mL]
1 | B1 | > 1
2 | B2 | > 1
3 | B3 | > 1
4 | B4 | > 1
5 | B5 | > 1
6 | B6 | > 1
7 | B7 | > 1
8 | B8 | 0.348
9 | B9 | > 1
10 | B10 | > 1
11 | B11 | > 1
12 | B12 | > 1
13 | B13 | > 1
14 | B14 | > 1
15 | B15 | > 1
16 | B16 | > 1
17 | B17 | > 1
18 | B18 | > 1
19 | B19 | > 1
20 | B20 | > 1
21 | B21 | > 1
22 | B22 | 0.947
23 | B23 | > 1
24 | B24 | 0.401
